The record followed here is PMC4264199, “Peptide Array on Cellulose Support—A Screening Tool to Identify Peptides with Dipeptidyl-Peptidase IV Inhibitory Activity within the Sequence of α-Lactalbumin” (International Journal of Molecular Sciences, 2014).

Ends that are not written are not given here.

The target in this test is T1, dipeptidyl-peptidase IV (DPP-IV) (Homo sapiens, UniProt P27487).
T1 construct: purchased Creative BioMart (Shirley, NY, USA); host or cells: HEK293 human cells
T1 sequence (P27487 whole entry): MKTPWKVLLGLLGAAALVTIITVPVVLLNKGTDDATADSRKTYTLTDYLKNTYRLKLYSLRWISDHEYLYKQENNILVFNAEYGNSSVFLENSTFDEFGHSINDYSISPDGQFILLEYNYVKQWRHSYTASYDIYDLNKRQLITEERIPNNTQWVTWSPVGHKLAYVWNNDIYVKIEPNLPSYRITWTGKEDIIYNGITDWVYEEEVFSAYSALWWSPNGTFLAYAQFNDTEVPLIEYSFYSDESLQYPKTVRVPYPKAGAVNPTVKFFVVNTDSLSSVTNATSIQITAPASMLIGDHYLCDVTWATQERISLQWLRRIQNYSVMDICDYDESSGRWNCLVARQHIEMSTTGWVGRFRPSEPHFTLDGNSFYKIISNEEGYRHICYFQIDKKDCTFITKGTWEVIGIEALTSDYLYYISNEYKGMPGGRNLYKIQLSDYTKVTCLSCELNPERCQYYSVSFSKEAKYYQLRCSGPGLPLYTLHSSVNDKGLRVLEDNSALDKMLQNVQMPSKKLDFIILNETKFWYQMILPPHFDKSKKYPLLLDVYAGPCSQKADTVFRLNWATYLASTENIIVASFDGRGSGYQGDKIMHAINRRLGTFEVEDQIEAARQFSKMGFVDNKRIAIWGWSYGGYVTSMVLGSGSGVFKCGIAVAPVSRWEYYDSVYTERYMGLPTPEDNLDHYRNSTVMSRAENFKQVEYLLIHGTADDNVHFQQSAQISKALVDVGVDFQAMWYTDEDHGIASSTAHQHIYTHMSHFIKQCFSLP
Briefly: DPP-IV inhibition assay on SPOT-synthesized peptides (cleaved from cellulose membrane). It is filed as biochemical. As to conditions: peptides cleaved from cellulose membrane, concentration not known (semi-quantitative); averages of four determinations from two experiments. The text has this:
Recombinant human dipeptidyl-peptidase IV (DPP-IV, EC 3.4.14.5, expressed in HEK293 human cells, >95% purity, activity >5500 pmoles Gly–Pro–7-amido-4-methylcoumarin/min/µg) was purchased from Creative BioMart (Shirley, NY, USA) while polyclonal goat DPP-IV antibody and polyclonal donkey anti-goat secondary antibody conjugated to horseradish peroxidase were obtained from R&D Systems (Minneapolis, MN, USA). Pierce™ ECL western blotting substrate and protein-free (TBS) blocking buffer were from Thermo Scientific (Rockford, IL, USA). Gly–Pro–p-nitroanilide (H-Gly–Pro–p-NA∙HCl) was purchased from Bachem Americas (Torrance, CA, USA). Synthesized peptides (≥95% purity) were prepared and purified by GL Biochem (Shanghai) Ltd. (Shanghai, China).
Peptide arrays of deca-peptides spanning the entire α-lactalbumin sequence with a frame shift of one amino acid between successive sequences were prepared by Kinexus Bioinformatics Corporation (Vancouver, BC, Canada). The peptides were synthesized from the C-terminal amino acid using the SPOT technology consisting of the stepwise coupling of the Fmoc-protected amino acids and cleavage of the side chain protection groups. The α-lactalbumin-derived peptides were synthesized on trioxatridecanediamine (TOTD) and β-alanine-modified Whatman 540 cellulose membranes for the binding and inhibition assays, respectively. For the inhibition assay, the peptides were synthesized in large dots (5–7 mm in diameter) and the quality of the synthesis was verified by HPLC analysis of quality controls spots included on the membranes.
In order to determine the effect of the SPOT-synthesized peptides on the activity of the DPP-IV enzyme, the peptides were first cleaved from the cellulose support by incubating the membranes with gaseous ammonia overnight. Peptide spots (5 mm in diameter) were then punched out using a single-hole punch and transferred into microcentrifuge tubes containing 150 µL of acetonitrile (50% in 100 mM Tris–HCl buffer pH 8.0). The peptide solution (50 µL) was pipetted into a 96-well microplate with 35 µL of the chromogenic substrate Gly–Pro–p-NA (0.29 mM in 100 mM Tris–HCl buffer pH 8.0). The mixture was pre-incubated for 10 min at 37 °C, whereupon 15 µL of DPP-IV (25 mU/mL) was added and the enzymatic reaction was carried out for 30 min at 37 °C. The reaction was then terminated by addition of 100 µL of 1 M sodium acetate buffer pH 4.0 and the absorbance of the released p-nitroaniline was measured at 405 nm using a Tecan Infinite® 200 Pro microplate reader (ESBE Scientific, Markham, ON, Canada). Positive and negative controls (DPP-IV activity with no inhibitor and no DPP-IV activity, respectively) were prepared using punched peptide-free cellulose spots from the same membrane used for peptide synthesis, and adding Tris-HCl buffer in place of the sample and in place of the sample and enzyme solution, respectively.
One unit of DPP-IV was defined as the concentration of enzyme that releases 1 µmol per min of p-nitroaniline from Gly–Pro–p-NA (100 µM) at 37 °C and pH 8.0.
In the case of “A2: α-lactalbumin-derived deca-peptide, residues 2–11 (Table S1) (QFTKCELSQL; UniProt P00709 21-30, looked up, fragment)”, the “Percent inhibition of DPP-IV activity, SPOT-synthesized deca-peptides” value (shortened to “Percent inhibition of DPP-IV activity”) was 16%.

“A3: α-lactalbumin-derived deca-peptide, residues 3–12 (Table S1) (FTKCELSQLL; UniProt P00709 22-31, looked up, fragment)”: the “Percent inhibition of DPP-IV activity” value is reported as 20%.

In the case of “A4: α-lactalbumin-derived deca-peptide, residues 4–13 (Table S1) (TKCELSQLLK; UniProt P00709 23-32, looked up, fragment)”, the “Percent inhibition of DPP-IV activity” value stood at 20%.

On to “A5: α-lactalbumin-derived deca-peptide, residues 5–14 (Table S1) (KCEVFRELKD; UniProt P00711 24-33, looked up, fragment)”, for which the “Percent inhibition of DPP-IV activity” value stood at 17%.

As to “A6: α-lactalbumin-derived deca-peptide, residues 6–15 (Table S1) (CEVFRELKDL; UniProt P00711 25-34, looked up, fragment)”, the “Percent inhibition of DPP-IV activity” value amounted to 16%.

In the case of “A7: α-lactalbumin-derived deca-peptide, residues 7–16 (Table S1) (EVFRELKDLK; UniProt P00711 26-35, looked up, fragment)”, the “Percent inhibition of DPP-IV activity” value is 18%.

“A9: α-lactalbumin-derived deca-peptide, residues 9–18 (Table S1) (FRELKDLKGY; UniProt P00711 28-37, looked up, fragment)”: the “Percent inhibition of DPP-IV activity” value was 17%.

Regarding AHKALCSEKL [J7], the “Percent inhibition of DPP-IV activity” value is on record as 21%.

AIVQNNDSTE [D7]: the “Percent inhibition of DPP-IV activity” value is 11%.

For the substance ALCSEKLDQW [J10], the “Percent inhibition of DPP-IV activity” value amounted to 21%.

“B1: α-lactalbumin-derived deca-peptide, residues 12–21 (Table S1) (LKDLKGYGGV; UniProt P00711 31-40, looked up, fragment)”: the “Percent inhibition of DPP-IV activity” value worked out at 11%.

In the case of “B2: α-lactalbumin-derived deca-peptide, residues 13–22 (Table S1) (KDLKGYGGVS; UniProt P00711 32-41, looked up, fragment)”, the “Percent inhibition of DPP-IV activity” value is 11%.

As for “B3: α-lactalbumin-derived deca-peptide, residues 14–23 (Table S1) (DIDGYGGIAL; UniProt P00709 33-42, looked up, fragment)”, the “Percent inhibition of DPP-IV activity” value is 13%.

Turning to “B4: α-lactalbumin-derived deca-peptide, residues 15–24 (Table S1) (LKGYGGVSLP; UniProt P00711 34-43, looked up, fragment)”, the “Percent inhibition of DPP-IV activity” value is 13%.

For “B5: α-lactalbumin-derived deca-peptide, residues 16–25 (Table S1) (KGYGGVSLPE; UniProt P00711 35-44, looked up, fragment)”, the “Percent inhibition of DPP-IV activity” value amounted to 11%.

Consider “B7: α-lactalbumin-derived deca-peptide, residues 18–27 (Table S1) (YGGVSLPEWV; UniProt P00711 37-46, looked up, fragment)”, for which the “Percent inhibition of DPP-IV activity” value was 15%.

Turning to “B8: α-lactalbumin-derived deca-peptide, residues 19–28 (Table S1) (GGVSLPEWVC; UniProt P00711 38-47, looked up, fragment)”, the “Percent inhibition of DPP-IV activity” value came out at 15%.

For the substance “B9: α-lactalbumin-derived deca-peptide, residues 20–29 (Table S1) (GVSLPEWVCT; UniProt P00711 39-48, looked up, fragment)”, the “Percent inhibition of DPP-IV activity” value turned out to be 15%.

In the case of “C2: α-lactalbumin-derived deca-peptide, residues 24–33 (Table S1) (PEWVCTTFHT; UniProt P00711 43-52, looked up, fragment)”, the “Percent inhibition of DPP-IV activity” value is 14%.

Take “C3: α-lactalbumin-derived deca-peptide, residues 25–34 (Table S1) (ELICTMFHTS; UniProt P00709 44-53, looked up, fragment)”: the “Percent inhibition of DPP-IV activity” value is 18%.

“C4: α-lactalbumin-derived deca-peptide, residues 26–35 (Table S1) (WVCTTFHTSG; UniProt P00711 45-54, looked up, fragment)”: the “Percent inhibition of DPP-IV activity” value is 26%.

With “C5: α-lactalbumin-derived deca-peptide, residues 27–36 (Table S1) (ICTMFHTSGY; UniProt P00709 46-55, looked up, fragment)”, the “Percent inhibition of DPP-IV activity” value is recorded as 16%.

As to “C6: α-lactalbumin-derived deca-peptide, residues 28–37 (Table S1) (CTTFHTSGYD; UniProt P00711 47-56, looked up, fragment)”, the “Percent inhibition of DPP-IV activity” value is 10%.

Take “C7: α-lactalbumin-derived deca-peptide, residues 29–38 (Table S1) (TTFHTSGYDT; UniProt P00711 48-57, looked up, fragment)”: the “Percent inhibition of DPP-IV activity” value is reported as 5%.

Take “C8: α-lactalbumin-derived deca-peptide, residues 30–39 (Table S1) (TFHTSGYDTQ; UniProt P00711 49-58, looked up, fragment)”: the “Percent inhibition of DPP-IV activity” value is 13%.

Consider CDKFLDDDLT [G11], for which the “Percent inhibition of DPP-IV activity” value came out at 22%.

CSEKLDQWLC [K1]: the “Percent inhibition of DPP-IV activity” value came out at 22%.

Take “D1: α-lactalbumin-derived deca-peptide, residues 34–43 (Table S1) (SGYDTQAIVE; UniProt P00709 53-62, looked up, fragment)”: the “Percent inhibition of DPP-IV activity” value was 11%.

For the substance “D2: α-lactalbumin-derived deca-peptide, residues 35–44 (Table S1) (GYDTQAIVQN; UniProt P00711 54-63, looked up, fragment)”, the “Percent inhibition of DPP-IV activity” value is given as 9%.

Regarding “D3: α-lactalbumin-derived deca-peptide, residues 36–45 (Table S1) (YDTQAIVENN; UniProt P00709 55-64, looked up, fragment)”, the “Percent inhibition of DPP-IV activity” value was found to be 11%.

“D5: α-lactalbumin-derived deca-peptide, residues 38–47 (Table S1) (TQAIVQNNDS; UniProt P00711 57-66, looked up, fragment)”: the “Percent inhibition of DPP-IV activity” value is recorded as 14%.

In the case of “D6: α-lactalbumin-derived deca-peptide, residues 39–48 (Table S1) (QAIVQNNDST; UniProt P00711 58-67, looked up, fragment)”, the “Percent inhibition of DPP-IV activity” value came out at 14%.

For the substance DDQNPHSSNI [F8], the “Percent inhibition of DPP-IV activity” value was determined as 15%.

As to DQNPHSSNIC [F9], the “Percent inhibition of DPP-IV activity” value was determined as 15%.

Consider DSTEYGLFQI [E2], for which the “Percent inhibition of DPP-IV activity” value turned out to be 14%.

In the case of EKLDQWLCEK [K3], the “Percent inhibition of DPP-IV activity” value worked out at 24%.

ELKDLKGYGG [A11]: the “Percent inhibition of DPP-IV activity” value worked out at 8%.

Consider EYGLFQINNK [E5], for which the “Percent inhibition of DPP-IV activity” value is 10%.

Take FQINNKIWCK [E9]: the “Percent inhibition of DPP-IV activity” value turned out to be 20%.

Regarding “G1: α-lactalbumin-derived deca-peptide, residues 67–76 (Table S1) (PHSSNICNIS; UniProt P00711 86-95, looked up, fragment)”, the “Percent inhibition of DPP-IV activity” value is on record as 11%.
